Laboratory results taken from US20110065652A1.
Bridge positions count the residues as written; N and C are the ends. Square brackets hold non-standard residues; d marks the D form. Orn = NCCC[C@H](N)C(=O)O; Dab = NCC[C@H](N)C(=O)O

How the values were obtained:
[1] = target: human recombinant melanocortin-3 receptor (hMC3-R) (human) (UniProt P41968); test: competitive binding against labelled NDP-α-MSH (I125 or Eu), HEK-293 hMC3-R membranes
[2] = target: human recombinant melanocortin-4 receptor (hMC4-R) (human) (UniProt P32245); test: competitive binding against [I125]-NDP-α-MSH, HEK-293 hMC4-R membranes
[3] = target: human recombinant melanocortin-4 receptor (hMC4-R) (human) (UniProt P32245); test: cell-based or functional assay
[4] = target: melanocortin-1 receptor (MC1-R), endogenous in B-16 mouse melanoma cells (mouse) (UniProt Q01727); test: competitive binding against [I125]-NDP-α-MSH, B-16 mouse melanoma membranes
[5] = target: human recombinant melanocortin-5 receptor (hMC5-R) (human) (UniProt P33032); test: competitive binding against Eu-NDP-α-MSH, HEK-293 hMC5-R membranes
human recombinant melanocortin-5 receptor (hMC5-R) (human), sequence (P33032 whole entry): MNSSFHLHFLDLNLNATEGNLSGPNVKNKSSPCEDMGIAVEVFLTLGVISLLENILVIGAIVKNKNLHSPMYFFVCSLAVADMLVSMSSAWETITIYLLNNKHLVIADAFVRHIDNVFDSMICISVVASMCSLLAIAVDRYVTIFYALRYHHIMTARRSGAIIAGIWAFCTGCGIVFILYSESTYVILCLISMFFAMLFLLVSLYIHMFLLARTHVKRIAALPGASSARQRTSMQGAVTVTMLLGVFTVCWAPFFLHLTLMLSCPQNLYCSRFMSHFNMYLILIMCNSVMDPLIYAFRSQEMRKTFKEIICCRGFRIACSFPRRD

human recombinant melanocortin-4 receptor (hMC4-R) (human), sequence (P32245 whole entry): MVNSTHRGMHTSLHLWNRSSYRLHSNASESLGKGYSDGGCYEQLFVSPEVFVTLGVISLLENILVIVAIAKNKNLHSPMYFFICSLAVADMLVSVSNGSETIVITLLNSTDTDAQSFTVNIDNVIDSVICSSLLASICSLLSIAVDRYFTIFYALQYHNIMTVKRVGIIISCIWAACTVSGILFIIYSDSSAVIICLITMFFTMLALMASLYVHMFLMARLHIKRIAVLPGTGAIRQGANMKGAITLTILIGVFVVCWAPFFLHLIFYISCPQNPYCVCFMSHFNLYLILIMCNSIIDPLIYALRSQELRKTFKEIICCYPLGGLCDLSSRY
human recombinant melanocortin-3 receptor (hMC3-R) (human), sequence (P41968 whole entry): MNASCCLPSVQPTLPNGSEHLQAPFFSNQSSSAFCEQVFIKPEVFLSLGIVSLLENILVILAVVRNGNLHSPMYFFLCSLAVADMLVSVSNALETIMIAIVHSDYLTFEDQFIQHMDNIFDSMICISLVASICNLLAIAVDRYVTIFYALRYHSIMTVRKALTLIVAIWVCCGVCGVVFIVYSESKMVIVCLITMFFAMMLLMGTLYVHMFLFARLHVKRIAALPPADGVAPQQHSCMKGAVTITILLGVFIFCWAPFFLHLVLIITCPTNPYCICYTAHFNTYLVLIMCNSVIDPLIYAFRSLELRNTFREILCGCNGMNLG
melanocortin-1 receptor (MC1-R), endogenous in B-16 mouse melanoma cells (mouse), sequence (Q01727 whole entry): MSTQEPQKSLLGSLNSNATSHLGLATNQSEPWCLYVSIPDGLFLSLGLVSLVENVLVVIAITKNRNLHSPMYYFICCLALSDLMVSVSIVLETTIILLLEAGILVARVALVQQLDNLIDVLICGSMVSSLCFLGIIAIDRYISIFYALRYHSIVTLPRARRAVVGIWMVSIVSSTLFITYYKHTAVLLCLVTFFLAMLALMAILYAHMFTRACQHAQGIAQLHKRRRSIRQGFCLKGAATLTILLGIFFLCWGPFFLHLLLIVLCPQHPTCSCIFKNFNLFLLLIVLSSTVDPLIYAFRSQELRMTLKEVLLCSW

| Ki [1] | Ki [2] | EC50 (cAMP accumulation in HEK-293 cells expressing hMC4-R) [3] | intrinsic activity (cAMP, NDP-α-MSH is 100%) [3] | Ki [4] | Ki [5] | Binder |
| --- | --- | --- | --- | --- | --- | --- |
| 74 nM | 0.65 nM | 0.3 nM | 94% | 1 nM | 300 nM | Ac-RE[Dab][dF]RW[Orn]-NH2 (lactam 2-7; also: TFA salt) [cyclic peptide of Example 8.3, Ac-Arg-cyclo(Glu-Dab-D-Phe-Arg-Trp-Orn)-NH2] |
| 410 nM | 8 nM |  | 91% | 4 nM | 2370 nM | Ac-RE[Dab][dF]RW[Orn]-OH (lactam 2-7; also: acetate and TFA salts) [cyclic peptide of Example 8.4, Ac-Arg-cyclo(Glu-Dab-D-Phe-Arg-Trp-Orn)-OH] |
